Assay results published in patent publication US20130287781A1 (GlaxoSmithKline, published 2013).

Columns and labels:
GST-human NOGO-A56 [1] = target: T1, GST-human NOGO-A56 (human); test: SPR (Biacore), GST-human NOGO-A56 amine-coupled to CM5, antibody flowed over, 25 C
T1 construct: Expressed in E. coli BL21 from pGEX-6P1 and purified on glutathione-sepharose; the GST tag is part of the protein in the assays; also called GST-Nogo-A 5+6; GST Nogo-A 5 + 6
Description: (§1) GST-human NOGO-A56 was immobilised to a CM5 chip by primary amine coupling using the Biacore Wizard program designed for targeted immobilisation levels. The CM5 sensor surface was activated by passing a solution of 50 mM N-hydroxy-succinimide (NHS) and 200 mM N-ethyl-N′-dimethylaminopropyl carbonide (EDC). Then GST-human NOGO-A56 in sodium acetate buffer, pH5.0 or pH 4.5, was passed over the chip and immobilised. After immobilisation was complete any still activated esters were blocked by an injection of 1M ethanolamine hydrochloride, pH8.5.
(§2) The anti-NOGO mAbs were diluted down in HBS-EP (10 mM HEPES, pH 7.4, 150 mM NaCl, 3 mM EDTA, and 0.005% P-20 surfactant) for the BIAcore 3000 or HBS-EP+ (10 mM HEPES, pH 7.4, 150 mM NaCl, 3 mM EDTA, and 0.05% P-20 surfactant) in the case of the T100 and binding studies were carried out at range of defined antibody concentrations. All runs were referenced against a blanked sensor surface (one that had been activated and blocked as described earlier but had no addition of ligand). Analysis of binding was carried out using the BIAevaluation kinetic analysis software version 4.1 for the BIAcore 3000 and T100 kinetic analysis software version 1.0. […] Unless otherwise stated, the BIAcore experiments were performed at 25° C.

GST-human NOGO-A56 [2] = target: T1, GST-human NOGO-A56; test: SPR (Biacore T100), human Nogo-A amine-coupled to CM5, antibody 0.125-8 nM flowed over; mean
GST-human NOGO-A56 [3] = target: T1, GST-human NOGO-A56; test: direct ELISA, GST-human NOGO-A56 coated at 1.0 mcg/ml, purified antibody, OD490
GST-human NOGO-A56 [4] = target: T1, GST-human NOGO-A56; test: reverse format ELISA: antibody captured on anti-human IgG, GST-Nogo-A 5+6 detected with anti-GST-HRP; the x axis is the antibody concentration
[5] = target: T2, Cynomolgus monkey NOGO (A56) plus GST tag (cynomolgus monkey); test: direct ELISA on GST-NOGO-A56 from cynomolgus, Abs490
T2 construct: also called cynomolgus Nogo-A; GST-NOGO-A56 from cynomolgus
T2 sequence (chain, as listed by the source limits assumed): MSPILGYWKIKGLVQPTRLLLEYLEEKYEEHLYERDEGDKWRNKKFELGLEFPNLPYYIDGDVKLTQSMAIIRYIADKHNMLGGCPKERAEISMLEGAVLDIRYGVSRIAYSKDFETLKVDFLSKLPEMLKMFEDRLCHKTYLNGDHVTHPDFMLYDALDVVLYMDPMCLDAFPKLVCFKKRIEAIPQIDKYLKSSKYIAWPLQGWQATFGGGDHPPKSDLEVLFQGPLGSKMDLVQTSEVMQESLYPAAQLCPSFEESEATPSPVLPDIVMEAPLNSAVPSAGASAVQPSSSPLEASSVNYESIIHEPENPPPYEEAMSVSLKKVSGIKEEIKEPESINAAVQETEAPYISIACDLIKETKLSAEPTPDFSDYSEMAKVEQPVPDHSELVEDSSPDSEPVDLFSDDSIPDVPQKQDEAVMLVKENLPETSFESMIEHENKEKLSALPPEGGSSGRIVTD

[6] = target: T3, native human Nogo-A of IMR32 neuroblastoma cells (intracellular) (human, UniProt Q9NQC3 1-1192); test: flow cytometry on permeabilised, fixed IMR32 cells (intracellular Nogo-A), PE anti-human IgG, MFI
T3 construct: whole, on cells; Detected inside permeabilised, fixed cells (ER-resident), not on the cell surface; also called intracellular Nogo-A; native Nogo-A
T3 sequence (looked up): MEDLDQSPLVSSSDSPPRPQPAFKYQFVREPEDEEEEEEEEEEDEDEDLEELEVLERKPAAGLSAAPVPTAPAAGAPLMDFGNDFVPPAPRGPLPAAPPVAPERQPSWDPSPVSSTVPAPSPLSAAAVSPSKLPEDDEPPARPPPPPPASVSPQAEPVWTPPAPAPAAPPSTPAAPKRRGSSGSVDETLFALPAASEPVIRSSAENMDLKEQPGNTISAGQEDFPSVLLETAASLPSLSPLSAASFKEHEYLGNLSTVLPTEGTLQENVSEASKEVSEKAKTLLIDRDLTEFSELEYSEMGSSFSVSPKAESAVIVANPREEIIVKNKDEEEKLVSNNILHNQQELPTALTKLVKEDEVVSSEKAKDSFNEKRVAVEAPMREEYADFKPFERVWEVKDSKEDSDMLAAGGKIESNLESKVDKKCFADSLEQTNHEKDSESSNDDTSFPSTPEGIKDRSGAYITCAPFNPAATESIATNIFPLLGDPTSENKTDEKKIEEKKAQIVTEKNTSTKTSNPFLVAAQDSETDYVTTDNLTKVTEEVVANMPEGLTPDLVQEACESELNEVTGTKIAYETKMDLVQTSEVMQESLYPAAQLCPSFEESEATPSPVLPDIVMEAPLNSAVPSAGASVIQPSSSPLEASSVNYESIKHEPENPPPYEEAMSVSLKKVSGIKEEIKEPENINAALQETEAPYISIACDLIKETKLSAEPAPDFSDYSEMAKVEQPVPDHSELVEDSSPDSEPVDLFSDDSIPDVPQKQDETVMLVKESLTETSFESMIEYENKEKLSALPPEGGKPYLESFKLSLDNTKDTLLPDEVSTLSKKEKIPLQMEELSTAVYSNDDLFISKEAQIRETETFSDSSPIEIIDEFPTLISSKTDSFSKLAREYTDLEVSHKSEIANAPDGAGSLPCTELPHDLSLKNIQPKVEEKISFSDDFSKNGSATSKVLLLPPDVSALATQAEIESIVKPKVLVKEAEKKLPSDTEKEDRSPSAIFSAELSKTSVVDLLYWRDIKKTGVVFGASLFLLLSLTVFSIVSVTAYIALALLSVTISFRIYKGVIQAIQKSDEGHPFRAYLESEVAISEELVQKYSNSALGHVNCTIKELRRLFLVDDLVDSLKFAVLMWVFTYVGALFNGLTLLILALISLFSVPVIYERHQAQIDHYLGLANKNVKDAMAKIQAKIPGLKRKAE
Description: In the second assay, the ability of the humanised antibodies to bind native Nogo-A was assessed using a human neuroblastoma cell line—IMR32. This cell line is characterised by high intracellular/low cell surface levels of Nogo-A protein. In an attempt to increase the binding signal, the assay was set-up to detect intracellular Nogo-A (ER-resident). IMR32 cells were permeabilised and fixed prior to staining with the anti-Nogo-A humanised antibodies. Binding of the antibodies to Nogo-A was detected using an anti-human IgG-PE labelled secondary (Sigma, #P8047).

[7] = target: T4, Rat NOGO (A56) plus GST tag (rat); test: SPR (Biacore T100), Nogo-A orthologue amine-coupled to CM5, antibody 0.125-8 nM flowed over; mean
T4 construct: also called GST-NOGO-A56 from rat
T4 sequence (chain, as listed by the source limits assumed): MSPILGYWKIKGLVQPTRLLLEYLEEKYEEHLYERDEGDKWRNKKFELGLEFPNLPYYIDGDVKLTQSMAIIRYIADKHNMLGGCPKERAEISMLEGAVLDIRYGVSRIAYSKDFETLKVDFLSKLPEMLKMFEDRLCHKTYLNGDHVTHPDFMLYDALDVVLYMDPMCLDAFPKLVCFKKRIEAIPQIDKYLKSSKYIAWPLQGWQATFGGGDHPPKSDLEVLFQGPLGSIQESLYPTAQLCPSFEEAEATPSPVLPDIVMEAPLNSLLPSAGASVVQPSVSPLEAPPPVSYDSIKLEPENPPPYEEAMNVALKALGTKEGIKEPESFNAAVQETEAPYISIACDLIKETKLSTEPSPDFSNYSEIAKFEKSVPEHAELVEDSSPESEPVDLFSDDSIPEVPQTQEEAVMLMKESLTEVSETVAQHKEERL
Excerpt: (§3) Approximately 140-180RUs of the various Nogo-A orthologues were captured to the CM5 chip by primary amine coupling. […] The values show the mean and standard deviation (in brackets) of 1-2 independent runs carried out in duplicate with each data set independently analysed prior to calculation of the mean and standard deviation.

[8] = target: T2, Cynomolgus monkey NOGO (A56) plus GST …; test: as above
Excerpt: as §3

[9] = target: T5, Squirrel monkey NOGO (A56) plus GST tag (squirrel monkey); test: as above
T5 construct: also called GST-NOGO-A56 from squirrel monkey
T5 sequence (chain, as listed by the source limits assumed): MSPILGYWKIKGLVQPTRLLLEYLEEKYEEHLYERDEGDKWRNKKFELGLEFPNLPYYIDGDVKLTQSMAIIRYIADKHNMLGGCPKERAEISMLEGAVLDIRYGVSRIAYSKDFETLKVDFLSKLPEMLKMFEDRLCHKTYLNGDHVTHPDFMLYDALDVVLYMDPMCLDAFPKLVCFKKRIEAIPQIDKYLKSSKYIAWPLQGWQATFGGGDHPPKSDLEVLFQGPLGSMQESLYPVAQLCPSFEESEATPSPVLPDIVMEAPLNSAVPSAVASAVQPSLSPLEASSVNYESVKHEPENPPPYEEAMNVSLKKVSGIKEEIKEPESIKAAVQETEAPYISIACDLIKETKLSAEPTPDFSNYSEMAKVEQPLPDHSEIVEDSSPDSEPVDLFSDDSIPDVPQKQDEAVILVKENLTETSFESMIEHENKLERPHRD
Excerpt: as §3

[10] = target: T6, Marmoset NOGO (A56) plus GST tag (marmoset); test: as above
T6 construct: also called GST-NOGO-A56 from marmoset
T6 sequence (chain, as listed by the source limits assumed): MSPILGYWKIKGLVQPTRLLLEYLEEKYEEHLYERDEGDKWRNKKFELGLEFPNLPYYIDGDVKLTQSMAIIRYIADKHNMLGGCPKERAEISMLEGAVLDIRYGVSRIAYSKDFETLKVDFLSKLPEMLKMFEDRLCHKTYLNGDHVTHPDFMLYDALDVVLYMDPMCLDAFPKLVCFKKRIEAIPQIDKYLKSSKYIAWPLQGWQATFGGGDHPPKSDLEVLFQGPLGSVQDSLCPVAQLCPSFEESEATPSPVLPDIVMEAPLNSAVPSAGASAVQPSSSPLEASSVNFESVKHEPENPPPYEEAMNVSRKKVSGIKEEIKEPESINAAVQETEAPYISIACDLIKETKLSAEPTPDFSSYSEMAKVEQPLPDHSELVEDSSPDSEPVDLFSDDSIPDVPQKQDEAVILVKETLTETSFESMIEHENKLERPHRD
Excerpt: as §3

GST-human NOGO-A56 [11] = target: T1, GST-human NOGO-A56; test: direct ELISA, GST-human NOGO-A56 coated at 1.0 mcg/ml, purified antibody, OD490; remark: listed apart in the source
Description: (§4) Wells were rinsed once with TBS+0.05% Tween (TBST) then incubated with 2% BSA in TBST to block non-specific binding sites at room temperature for 1 hour. Antibodies were diluted in TBST+2% BSA to 10 μg/ml and ½ dilutions made from this. Antibodies were added to wells in duplicate and incubated at room temperature for 1 hour. […] The wells were washed three times with TBST and then incubated with 100 μl OPD peroxidase substrate (Sigma) per well for 10 minutes. The colour reaction was stopped by the addition of 25 μl concentrated H₂SO₄. Optical density at 490 nm was measured using a plate reader. Background values read from wells with no antibody were subtracted.

GST-human NOGO-A56 [12] = target: T1, GST-human NOGO-A56; test: direct ELISA, GST-Nogo-A 5+6 coated at 1.0 mcg/ml, anti-human IgG-HRP, Abs490
Description: as §4

[13] = target: T5, Squirrel monkey NOGO (A56) plus GST tag; test: direct ELISA on GST-NOGO-A56 from squirrel monkey, Abs490
[14] = target: T4, Rat NOGO (A56) plus GST tag; test: direct ELISA on GST-NOGO-A56 from rat, Abs490
GST-human NOGO-A56 [15] = target: T1, GST-human NOGO-A56; test: SPR (Biacore), GST-human NOGO-A56 amine-coupled to CM5, antibody flowed over, 37 C
Description: as §1, §2

[16] = target: T6, Marmoset NOGO (A56) plus GST tag; test: direct ELISA on GST-NOGO-A56 from marmoset, Abs490

T1 sequence (chain, as listed by the source limits assumed): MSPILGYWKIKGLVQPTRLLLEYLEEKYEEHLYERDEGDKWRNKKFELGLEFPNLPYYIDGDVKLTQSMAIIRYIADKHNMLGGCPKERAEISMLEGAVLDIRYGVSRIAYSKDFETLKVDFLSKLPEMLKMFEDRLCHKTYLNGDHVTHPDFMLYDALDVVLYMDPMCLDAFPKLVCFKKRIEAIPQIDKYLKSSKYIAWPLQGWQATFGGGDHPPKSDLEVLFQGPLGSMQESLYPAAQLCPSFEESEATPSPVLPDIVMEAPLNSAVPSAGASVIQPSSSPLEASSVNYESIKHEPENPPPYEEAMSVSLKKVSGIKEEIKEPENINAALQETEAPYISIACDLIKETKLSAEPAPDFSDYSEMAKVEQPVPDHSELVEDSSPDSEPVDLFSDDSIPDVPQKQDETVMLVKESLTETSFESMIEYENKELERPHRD

B1: H28L16 (antibody, human IgG1, kappa)
heavy: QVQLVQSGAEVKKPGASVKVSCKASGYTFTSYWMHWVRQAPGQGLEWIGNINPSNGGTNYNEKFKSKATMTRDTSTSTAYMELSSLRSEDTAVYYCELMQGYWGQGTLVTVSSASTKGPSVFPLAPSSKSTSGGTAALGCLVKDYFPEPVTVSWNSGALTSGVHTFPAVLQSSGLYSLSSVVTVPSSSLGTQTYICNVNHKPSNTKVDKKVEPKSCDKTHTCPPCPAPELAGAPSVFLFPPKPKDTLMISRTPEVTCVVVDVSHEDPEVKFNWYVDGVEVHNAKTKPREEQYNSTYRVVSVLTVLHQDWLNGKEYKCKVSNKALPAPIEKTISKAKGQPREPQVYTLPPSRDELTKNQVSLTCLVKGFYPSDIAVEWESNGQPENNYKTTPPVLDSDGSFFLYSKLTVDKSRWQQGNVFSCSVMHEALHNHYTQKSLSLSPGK
light: DIVMTQSPLSNPVTLGQPVSISCRSSKSLLYKDGKTYLNWFLQRPGQSPQLLIYLMSTRASGVPDRFSGGGSGTDFTLKISRVEAEDVGVYYCQQLVEYPLTFGQGTKLEIKRTVAAPSVFIFPPSDEQLKSGTASVVCLLNNFYPREAKVQWKVDNALQSGNSQESVTEQDSKDSTYSLSSTLTLSKADYEKHKVYACEVTHQGLSSPVTKSFNRGEC
notes: IgG1 (L235A, G237A) / kappa; CAMPATH-1H signal (1-19) left out; also called H28FL L16FL; NOGO H28L16
GST-human NOGO-A56 [1]
  Kd: 0.296 nM
  koff: 0.00214 s⁻¹
  kon: 7.25e+06 M⁻¹ s⁻¹
GST-human NOGO-A56 [2]
  Kd: 0.64 nM
  kon: 6.97e+06 M⁻¹ s⁻¹
GST-human NOGO-A56 [3]
  EC50 (read off the curve): ~0.06 mg/L
GST-human NOGO-A56 [4]
  EC50 (read off the curve): ~0.06 mg/L
[5]
  EC50 (read off the curve): ~0.05 mg/L
[6]
  binding result: binds
[7]
  Kd: 0.33 nM
[8]
  Kd: 0.67 nM
[9]
  Kd: 0.61 nM
[10]
  Kd: 0.626 nM
GST-human NOGO-A56 [11]
  EC50 (read off the curve): ~0.08 mg/L
GST-human NOGO-A56 [12]
  EC50 (read off the curve): ~0.03 mg/L
[13]
  EC50 (read off the curve): ~0.05 mg/L
[14]
  EC50 (read off the curve): ~0.05 mg/L
GST-human NOGO-A56 [15]
  Kd: 0.678 nM
  koff: 0.00524 s⁻¹
  kon: 7.73e+06 M⁻¹ s⁻¹
[16]
  EC50 (read off the curve): ~0.04 mg/L

B2: HcLc (chimera of 2A10: murine 2A10 VH and VL with human IgG constant regions) (antibody, V domains shown)
VH: QVQLQQPGTELVKPGASVKLSCKASGYTFTSYWMHWVKQRPGQGLEWIGNINPSNGGTNYNEKFKSKATLTVDKSSSTAYMQLSSLTSEDSAVYYCELGQGYWGQGTLVTVSS
VL: DIVITQDELSNPVTSGESVSISCRSSKSLLYKDGKTYLNWFLQRPGQSPQLLIYLMSTRASGVSDRFSGSGSGTDFTLEISRVKAEDVGVYYCQQLVEYPLTFGAGTKLELKR
notes: also called chimeric antibody; chimeric form of the parental antibody
GST-human NOGO-A56 [1]
  Kd: 0.779 nM
  koff: 0.00249 s⁻¹
  kon: 3.19e+06 M⁻¹ s⁻¹
GST-human NOGO-A56 [2]
  Kd: 1.86 nM
GST-human NOGO-A56 [3]
  EC50 (read off the curve): ~0.06 mg/L
GST-human NOGO-A56 [4]
  EC50 (read off the curve): ~0.1 mg/L
[5]
  EC50 (read off the curve): ~0.1 mg/L
[6]
  binding result: binds
[7]
  Kd: 1.12 nM
[8]
  Kd: 1.68 nM
[9]
  Kd: 1.54 nM
[10]
  Kd: 1.42 nM
GST-human NOGO-A56 [11]
  EC50 (read off the curve): ~0.09 mg/L
GST-human NOGO-A56 [12]
  EC50 (read off the curve): ~0.08 mg/L
[13]
  EC50 (read off the curve): ~0.07 mg/L
[14]
  EC50 (read off the curve): ~0.1 mg/L
GST-human NOGO-A56 [15]
  Kd: 1.46 nM
  koff: 0.00774 s⁻¹
  kon: 5.08e+06 M⁻¹ s⁻¹
[16]
  EC50 (read off the curve): ~0.09 mg/L
